Ends that are not written are not given here.
How the values were obtained:
[1] = molecular target: catalytically-dead separase with intact autocleavage sites (UniProt Q14674)
[2] = test system: Mca-DDREIMREGS-Dnp peptide containing Scc1 site 1
[3] = test system: securin^RE fragment containing residues 93-150
[4] = molecular target: 35S-labeled human Scc1 fragment (residues 142-300) (UniProt O60216)
[5] = molecular target: T1, separase biosensor H2B-mRuby2-Scc1(142-467)-mNeonGreen, wild-type (UniProt O60216)
T1 sequence (O60216 whole entry, looked up): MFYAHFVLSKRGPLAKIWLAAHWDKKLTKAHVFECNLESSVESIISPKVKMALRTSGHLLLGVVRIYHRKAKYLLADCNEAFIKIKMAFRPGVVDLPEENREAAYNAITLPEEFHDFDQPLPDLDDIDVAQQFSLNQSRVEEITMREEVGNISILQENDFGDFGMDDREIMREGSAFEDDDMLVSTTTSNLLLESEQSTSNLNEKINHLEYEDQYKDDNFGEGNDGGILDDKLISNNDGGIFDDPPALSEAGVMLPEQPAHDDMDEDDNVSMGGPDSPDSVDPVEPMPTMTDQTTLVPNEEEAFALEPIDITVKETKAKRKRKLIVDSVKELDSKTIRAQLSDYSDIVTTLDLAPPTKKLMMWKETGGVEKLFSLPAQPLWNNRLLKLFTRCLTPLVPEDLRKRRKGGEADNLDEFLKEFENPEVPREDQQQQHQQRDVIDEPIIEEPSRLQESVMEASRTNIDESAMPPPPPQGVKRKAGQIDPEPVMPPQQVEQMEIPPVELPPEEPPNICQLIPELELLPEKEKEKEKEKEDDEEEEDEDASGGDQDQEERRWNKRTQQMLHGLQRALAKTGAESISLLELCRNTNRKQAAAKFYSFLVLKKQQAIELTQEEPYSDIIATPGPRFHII

[6] = molecular target: separase biosensor H2B-mRuby2-Scc1(142-467)-mNeonGreen with deletion of Scc1 aa 251 to 260 (UniProt O60216)
[7] = molecular target: separase biosensor H2B-mRuby2-Scc1(142-467)-mNeonGreen with 255Leu-Pro to Ala-Ala (UniProt O60216)
[8] = molecular target: T2, active human separase, securin-free (ClpXP-activated separase obtained from the securin-separase fusion after … (human, UniProt Q14674 1-2120)); experiment: in vitro cleavage of 35S-labeled securin^RE fragments with LP mutations by separase; interaction inferred from cleavage
T2 construct: also called active separase; apo separase; not shown: N-terminal remnant left after TEV cleavage of the fusion (3x FLAG tag between TEV site and separase)
T2 sequence (Q14674 other isoform, or with tags, fused parts or gaps): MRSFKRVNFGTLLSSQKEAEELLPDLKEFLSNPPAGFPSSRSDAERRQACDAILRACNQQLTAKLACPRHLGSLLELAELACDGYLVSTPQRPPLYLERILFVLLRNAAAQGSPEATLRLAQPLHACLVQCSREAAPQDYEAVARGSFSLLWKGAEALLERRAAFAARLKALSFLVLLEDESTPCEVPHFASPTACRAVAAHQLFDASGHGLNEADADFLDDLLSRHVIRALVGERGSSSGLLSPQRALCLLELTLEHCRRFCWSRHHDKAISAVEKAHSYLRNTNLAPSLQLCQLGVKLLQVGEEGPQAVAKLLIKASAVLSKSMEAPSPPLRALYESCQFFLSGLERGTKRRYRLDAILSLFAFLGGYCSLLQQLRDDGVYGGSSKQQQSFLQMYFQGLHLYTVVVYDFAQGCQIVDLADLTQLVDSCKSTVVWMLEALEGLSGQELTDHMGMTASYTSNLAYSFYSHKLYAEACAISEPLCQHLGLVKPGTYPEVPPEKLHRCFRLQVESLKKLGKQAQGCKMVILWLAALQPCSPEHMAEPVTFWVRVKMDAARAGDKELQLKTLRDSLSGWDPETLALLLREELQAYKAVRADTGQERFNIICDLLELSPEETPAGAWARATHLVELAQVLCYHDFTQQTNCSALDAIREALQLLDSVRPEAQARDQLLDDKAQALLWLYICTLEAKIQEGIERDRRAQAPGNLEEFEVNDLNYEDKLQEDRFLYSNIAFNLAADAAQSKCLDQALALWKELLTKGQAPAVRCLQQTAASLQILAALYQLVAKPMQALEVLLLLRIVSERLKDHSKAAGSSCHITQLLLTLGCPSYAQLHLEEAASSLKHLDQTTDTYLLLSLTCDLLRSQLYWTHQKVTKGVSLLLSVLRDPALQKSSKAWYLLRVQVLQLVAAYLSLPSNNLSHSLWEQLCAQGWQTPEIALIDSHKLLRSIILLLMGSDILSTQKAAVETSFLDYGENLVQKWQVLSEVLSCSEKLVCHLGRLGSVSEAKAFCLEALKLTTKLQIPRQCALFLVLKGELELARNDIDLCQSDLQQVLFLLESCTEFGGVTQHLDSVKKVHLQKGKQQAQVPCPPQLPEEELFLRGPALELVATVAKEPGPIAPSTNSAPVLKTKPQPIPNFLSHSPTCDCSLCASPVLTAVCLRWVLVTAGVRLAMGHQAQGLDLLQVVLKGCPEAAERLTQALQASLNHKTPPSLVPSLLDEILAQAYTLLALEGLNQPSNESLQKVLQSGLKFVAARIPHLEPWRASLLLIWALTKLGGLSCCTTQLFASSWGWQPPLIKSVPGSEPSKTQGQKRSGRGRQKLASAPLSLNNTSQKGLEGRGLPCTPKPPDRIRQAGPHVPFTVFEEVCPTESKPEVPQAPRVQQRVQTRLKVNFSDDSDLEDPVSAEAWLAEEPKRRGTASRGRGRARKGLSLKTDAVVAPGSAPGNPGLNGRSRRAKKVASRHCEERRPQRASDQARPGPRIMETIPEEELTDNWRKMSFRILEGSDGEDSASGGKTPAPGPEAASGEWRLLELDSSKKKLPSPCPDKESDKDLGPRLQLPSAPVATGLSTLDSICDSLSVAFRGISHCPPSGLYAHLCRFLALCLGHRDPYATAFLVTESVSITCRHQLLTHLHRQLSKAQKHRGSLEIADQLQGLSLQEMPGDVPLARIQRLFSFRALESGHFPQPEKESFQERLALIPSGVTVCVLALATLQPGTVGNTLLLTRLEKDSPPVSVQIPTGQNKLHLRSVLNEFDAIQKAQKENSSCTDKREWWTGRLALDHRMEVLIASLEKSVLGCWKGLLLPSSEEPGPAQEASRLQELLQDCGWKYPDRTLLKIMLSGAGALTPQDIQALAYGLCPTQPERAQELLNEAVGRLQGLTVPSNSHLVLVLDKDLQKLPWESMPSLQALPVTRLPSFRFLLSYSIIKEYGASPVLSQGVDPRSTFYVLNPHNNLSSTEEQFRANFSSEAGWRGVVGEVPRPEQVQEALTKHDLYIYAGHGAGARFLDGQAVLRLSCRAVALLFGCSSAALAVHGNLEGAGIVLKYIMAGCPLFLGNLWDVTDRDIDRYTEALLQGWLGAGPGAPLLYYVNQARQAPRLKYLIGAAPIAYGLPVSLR
From the text: An approach for investigating the importance of ¹³⁰LPE for securin binding to separase was developed. It is known that fungal securin can be converted to a separase substrate by making mutations that convert the pseudosubstrate site into a cleavage site⁴. The equivalent mutations were made in human securin (¹¹⁸FP to RE) and this securin^RE mutant was used to test the importance of ¹³⁰LPE for securin engagement with separase. An LP sequence a few residues further downstream (¹³⁹LP) was also tested. […] A securin^RE fragment containing residues 93-150 was then tested. […] Mutation of ¹³⁹LP had no effect, except when combined with mutation of ¹³⁰LP.

catalytically-dead separase with intact autocleavage sites, sequence (Q14674 whole entry S1126A/C2029S): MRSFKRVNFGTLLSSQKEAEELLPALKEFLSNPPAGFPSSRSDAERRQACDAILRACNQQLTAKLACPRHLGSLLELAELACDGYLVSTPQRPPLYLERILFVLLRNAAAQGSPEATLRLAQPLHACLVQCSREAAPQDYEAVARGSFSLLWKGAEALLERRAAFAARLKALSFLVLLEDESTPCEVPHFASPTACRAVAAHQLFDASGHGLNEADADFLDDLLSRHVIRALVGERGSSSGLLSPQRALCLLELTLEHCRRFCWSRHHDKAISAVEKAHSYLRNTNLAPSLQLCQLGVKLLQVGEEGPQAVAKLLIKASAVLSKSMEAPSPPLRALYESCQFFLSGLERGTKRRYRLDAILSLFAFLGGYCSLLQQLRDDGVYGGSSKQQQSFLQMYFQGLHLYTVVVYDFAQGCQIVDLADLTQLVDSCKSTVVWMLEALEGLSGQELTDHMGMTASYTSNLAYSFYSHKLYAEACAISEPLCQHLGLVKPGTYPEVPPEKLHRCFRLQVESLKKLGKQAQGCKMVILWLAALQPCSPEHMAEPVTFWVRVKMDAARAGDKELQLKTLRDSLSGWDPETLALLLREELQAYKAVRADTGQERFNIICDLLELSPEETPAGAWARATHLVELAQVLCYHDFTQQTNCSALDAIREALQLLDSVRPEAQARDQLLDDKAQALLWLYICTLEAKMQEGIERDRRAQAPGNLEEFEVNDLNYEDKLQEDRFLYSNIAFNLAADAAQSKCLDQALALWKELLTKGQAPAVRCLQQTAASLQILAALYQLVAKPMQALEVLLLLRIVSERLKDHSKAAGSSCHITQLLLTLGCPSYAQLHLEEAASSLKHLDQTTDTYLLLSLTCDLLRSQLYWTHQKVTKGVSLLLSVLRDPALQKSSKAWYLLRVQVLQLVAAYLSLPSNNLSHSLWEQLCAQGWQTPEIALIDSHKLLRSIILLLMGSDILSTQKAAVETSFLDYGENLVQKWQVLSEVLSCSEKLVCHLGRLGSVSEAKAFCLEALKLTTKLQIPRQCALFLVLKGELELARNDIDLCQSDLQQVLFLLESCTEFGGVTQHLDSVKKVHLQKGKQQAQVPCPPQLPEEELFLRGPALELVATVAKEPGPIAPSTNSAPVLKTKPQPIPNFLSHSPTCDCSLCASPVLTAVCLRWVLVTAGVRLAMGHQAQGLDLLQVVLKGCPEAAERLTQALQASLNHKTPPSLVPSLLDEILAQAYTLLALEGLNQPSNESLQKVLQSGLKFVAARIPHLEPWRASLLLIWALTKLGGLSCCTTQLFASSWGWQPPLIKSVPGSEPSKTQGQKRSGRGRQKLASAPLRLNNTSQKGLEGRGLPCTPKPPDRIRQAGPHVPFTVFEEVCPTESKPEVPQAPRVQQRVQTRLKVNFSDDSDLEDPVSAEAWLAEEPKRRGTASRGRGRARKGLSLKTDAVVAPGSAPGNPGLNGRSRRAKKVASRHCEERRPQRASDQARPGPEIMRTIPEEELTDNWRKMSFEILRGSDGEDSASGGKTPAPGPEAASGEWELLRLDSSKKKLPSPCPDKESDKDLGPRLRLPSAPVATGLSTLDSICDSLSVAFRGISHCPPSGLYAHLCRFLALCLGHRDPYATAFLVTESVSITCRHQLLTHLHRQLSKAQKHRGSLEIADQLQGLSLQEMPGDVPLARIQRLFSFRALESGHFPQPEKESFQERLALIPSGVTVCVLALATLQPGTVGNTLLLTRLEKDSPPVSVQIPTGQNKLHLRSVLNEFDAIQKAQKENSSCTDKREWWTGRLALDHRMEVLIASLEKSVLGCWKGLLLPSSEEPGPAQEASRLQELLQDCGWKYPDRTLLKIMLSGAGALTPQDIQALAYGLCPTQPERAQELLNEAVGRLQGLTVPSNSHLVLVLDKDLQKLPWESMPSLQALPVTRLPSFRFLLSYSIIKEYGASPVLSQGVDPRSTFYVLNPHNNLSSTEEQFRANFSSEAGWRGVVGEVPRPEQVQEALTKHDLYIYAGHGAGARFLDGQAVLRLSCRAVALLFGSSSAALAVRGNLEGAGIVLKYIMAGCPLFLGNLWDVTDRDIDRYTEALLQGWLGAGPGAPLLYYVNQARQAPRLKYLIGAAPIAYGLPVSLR

active human separase, securin-free (ClpXP-activated separase obtained from the securin-separase fusion after TEV protease cleavage and ClpXP removal of securin)
cleavage in trans [1]: Separase also cleaved a catalytically-dead separase with intact autocleavage sites
KM [2]: KM of 70±30 µM
cleavage of securin^RE fragment [3]: This fragment was 50% cleaved by separase
cleavage of an Scc1 fragment in vitro [4]: incubation with purified ClpXP removed securin and activated separase, as evaluated by cleavage of an Scc1 fragment in vitro

securinΔ127-separase
peptide cleavage activity (Michaelis-Menten) [2]: no significant differences between the peptide cleavage activities of the three securinΔ-separase proteins and separase with no securin bound
cleavage of the Scc1 fragment in the gel-based assay [4]: exhibited no cleavage activity in this assay

securinΔ138-separase
peptide cleavage activity (Michaelis-Menten) [2]: no significant differences between the peptide cleavage activities of the three securinΔ-separase proteins and separase with no securin bound
cleavage of the Scc1 fragment in the gel-based assay [4]: exhibited efficient cleavage of the Scc1 substrate

securinΔ160-separase
peptide cleavage activity (Michaelis-Menten) [2]: no significant differences between the peptide cleavage activities of the three securinΔ-separase proteins and separase with no securin bound
cleavage of the Scc1 fragment in the gel-based assay [4]: exhibited efficient cleavage of the Scc1 substrate

separase in human U2OS cells (endogenous)
biosensor cleavage during anaphase [5]: efficient biosensor cleavage was observed during anaphase
biosensor cleavage efficiency [6]: yielded identical results as the double alanine mutation
biosensor cleavage efficiency [7]: reduced cleavage efficiency by 50%

B1: securin^RE fragment containing residues 93-150 (other)
chain: MTEKTVKAKSSVPASDDAYPEIEKFREFNPLDFESFDLPEEHQIAHLPLSGVPLMILD
modifications: also: 35S-methionine label
notes: Pseudosubstrate motif converted into a separase cleavage site; Translated in vitro with ZZ tag, released by TEV protease; also called 35S-labeled securin fragment (aa 93-150)
binding result [8]: binds
